Data published in patent US20240368233A1 (University of Washington, published 2024).
Where a chain is given by its changes, count along the chain named.

Tests used:
[1] = molecular target: T1, LHD29 chainB, split luciferase reporter construct; experiment: split luciferase equilibrium binding in lysate
T1 construct: not shown: N-terminal Strep-tag and sfGFP; GS-linker and smBiT or lgBiT
T1 chain: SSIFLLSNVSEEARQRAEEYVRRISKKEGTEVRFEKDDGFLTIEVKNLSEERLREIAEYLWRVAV

[2] = molecular target: T1, LHD29 chainB, split luciferase reporter …; experiment: split luciferase association kinetics, 1 nM vs. 10 nM, in lysate
Method: (§1) Assays were performed in 20 mM sodium phosphate, 100 mM NaCl, pH 7.4, 0.05% v/v Tween 20. Reactions were assembled in 96 well plates (Corning, cat #3686) in the presence of Nano-Glo™ substrate (Promega, cat. #N1130) diluted 100× or 500× for kinetics and endpoint measurements respectively (see supplement for detailed information). Luminescence was recorded on a Synergy Neo2 plate reader (BioTek). Kinetic assays were performed under pseudo first-order conditions, with the final concentration of one protein at 1 nM and the other at 10 nM. Dead times between substrate addition and data acquisition were typically 15-30 s. For long kinetic measurements (FIG. 11A), mastermixes of the protein complexes were made and aliquots were sampled at regular intervals. Data were fitted to a single exponential decay function: […]

[3] = molecular target: T1, LHD29 chainB, split luciferase reporter …; experiment: split luciferase; affinity of the interface as measured in isolation, used to simulate the ternary complex ABC
[4] = molecular target: T2, LHD206 chainB, split luciferase reporter construct; experiment: split luciferase equilibrium binding in lysate
T2 construct: not shown: N-terminal Strep-tag and sfGFP; GS-linker and smBiT or lgBiT
T2 chain: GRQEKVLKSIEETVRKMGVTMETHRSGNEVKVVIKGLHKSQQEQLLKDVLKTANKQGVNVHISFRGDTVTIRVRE

[5] = molecular target: T2, LHD206 chainB, split luciferase …; experiment: split luciferase association kinetics, 1 nM vs. 10 nM, in lysate
Method: as §1

[6] = molecular target: T3, LHD101 chainB, split luciferase reporter construct; experiment: split luciferase equilibrium binding in lysate
T3 construct: not shown: N-terminal Strep-tag and sfGFP; GS-linker and smBiT or lgBiT
T3 chain: T2 chain with K39E, K47E, K51R, N54E, N59R, H61R, S63R, R65K, R72V

[7] = molecular target: T3, LHD101 chainB, split luciferase …; experiment: split luciferase association kinetics, 1 nM vs. 10 nM, in lysate
Method: as §1

[8] = molecular target: T3, LHD101 chainB, split luciferase …; experiment: split luciferase; affinity of the interface as measured in isolation, used to simulate the ternary complex ABC
[9] = molecular target: T3, LHD101 chainB, split luciferase …; experiment: split luciferase equilibrium titration in E. coli lysate, constant partner at 1 nM; first-named construct read as the titrated one; no unit beside the number, M from the axis '[Titrated] / M'
LHD202 chainB [10] = molecular target: T4, LHD202 chainB; experiment: BLI, steady state fit
T4 construct: also called LHD202B
T4 chain: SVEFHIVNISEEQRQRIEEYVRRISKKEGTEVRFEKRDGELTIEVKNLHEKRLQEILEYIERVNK

LHD202 chainB [11] = molecular target: T4, LHD202 chainB; experiment: BLI, global kinetic fit, 1:1 model
[12] = molecular target: T5, 101B4, split luciferase reporter construct; experiment: split luciferase equilibrium binding in lysate
T5 construct: not shown: N-terminal Strep-tag and sfGFP; GS-linker and smBiT or lgBiT
T5 chain: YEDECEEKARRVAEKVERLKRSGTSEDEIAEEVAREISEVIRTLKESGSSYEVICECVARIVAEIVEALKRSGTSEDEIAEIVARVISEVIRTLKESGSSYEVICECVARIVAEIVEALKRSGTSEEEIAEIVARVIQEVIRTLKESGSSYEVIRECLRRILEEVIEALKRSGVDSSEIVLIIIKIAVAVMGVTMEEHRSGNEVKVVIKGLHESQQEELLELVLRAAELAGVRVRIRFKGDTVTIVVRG

[13] = molecular target: T5, 101B4, split luciferase reporter …; experiment: split luciferase association kinetics, 1 nM vs. 10 nM, in lysate
Method: as §1

[14] = molecular target: T6, 101B82, split luciferase reporter construct; experiment: split luciferase equilibrium binding in lysate
T6 construct: not shown: N-terminal Strep-tag and sfGFP; GS-linker and smBiT or lgBiT
T6 chain: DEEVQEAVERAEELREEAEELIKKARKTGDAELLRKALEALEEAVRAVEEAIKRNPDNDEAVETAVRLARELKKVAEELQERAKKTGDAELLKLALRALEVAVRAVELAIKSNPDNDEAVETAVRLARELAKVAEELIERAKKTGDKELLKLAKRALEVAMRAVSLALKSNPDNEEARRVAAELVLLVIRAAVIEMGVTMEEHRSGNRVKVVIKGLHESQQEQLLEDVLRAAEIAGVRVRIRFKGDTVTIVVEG

B1: LHD29 chainA, split luciferase reporter construct (designed binder)
chain: TWQWVLINISEEARQRIEEYVRRISKKEGTEVHFEKDDGVLHIRVKNLHEKRAREIHEYAKRVIL
notes: not shown: N-terminal Strep-tag and sfGFP; GS-linker and smBiT or lgBiT
Question: For B1, which Kd [1] is on record?
Answer: Its Kd is 60 nM.

Question: And the kobs [2]?
Answer: Its kobs is 0.0003 s⁻¹.

Question: What about the Kd [3] of the same binder?
Answer: Its Kd is 50 nM.

B2: LHD206 chainA, split luciferase reporter construct (designed binder)
chain: TDELLERLRQLFEELHERGTEIVVEVHINGRKTEIEVQGIDKRLLKIILEVIREEIEREGSSEVEVNVHSGGQTWTFNEK
notes: as for B1
Question: Which Kd [4] does the source give for B2 here?
Answer: The Kd was 11 nM.

Question: What about the kobs [5] of the same binder?
Answer: The kobs was 0.01 s⁻¹.

B3: LHD101 chainA, split luciferase reporter construct (designed binder)
chain: GRQEKVLKSIEETVRKMGVTMETHRSGNEVKVVIKGLHIKQQRQLYRDVRETSKKQGVETEIEVEGDTVTIVVRE
notes: as for B1
Question: For B3, which Kd [6] is on record?
Answer: Its Kd is 20 nM.

Question: What about the kobs [7] of the same binder?
Answer: The kobs was 0.04 s⁻¹.

Question: What about the Kd [8] of the same binder?
Answer: Its Kd is 5 nM.

Question: What about the Kd [9] of the same binder?
Answer: Its Kd is 37 nM.

B4: LHD202 chainA (designed binder)
chain: GRQEKVLKSIEETVRKMGVTMETHRSGNKVKVVIKGLHESQQEQLRKDVHETLRKQGVVAVTQKHGDTVTIYVTE
notes: also called LHD202A
Question: How did the Kd (LHD202 chainB [10]) turn out when B4 was run?
Answer: Its Kd is 2400 nM.

Question: What about the Kd (LHD202 chainB [11]) of the same binder?
Answer: The Kd was 4800 nM.

Question: What about the koff (LHD202 chainB [11]) of the same binder?
Answer: Its koff is 0.29 s⁻¹.

Question: And the kon (LHD202 chainB [11])?
Answer: Its kon is 60000 M⁻¹ s⁻¹.

B5: 101A53, split luciferase reporter construct (designed binder)
chain: NDEKEKLKELLKRAEELAKSPDPEDLKEAVRLAEEVVRERPGSNLAKKALEIILRAAEELAKLPDPEALKEAVKAAEKVVREQPGSNLAKKALEIILRAAAALANLPDPESRKEADKAADKVRREQPGSELAVVAAIISAVARMGVKMELHPSGNEVKVVIKGLHIKQQRQLYRDVREAAKKAGVEVEIEVEGDTVTIVVRG
notes: also called LHD101-A53-B4 (A53 half); not shown: N-terminal Strep-tag and sfGFP; GS-linker and smBiT or lgBiT
Question: What does the source list for B5?
Answer: Kd [12]: 4 nM; kobs [13]: 0.026 s⁻¹

B6: 101A21, split luciferase reporter construct (designed binder)
chain: SEKEKVEELAQRIREQLPDTELAREAQELADEARKSDDSEALKVVYLALRIVQQLPDTELAREALELAKEAVKSTDSEKLKVVYLALRVVQQLPDTEEARKALEIAKEAVKADAQILLAIARAVLKMGVEMEVHPSGNEVKVVIKGLHIKQQRQLYRDVREAAKKAGVEVEIEVEGDTVTIVVRE
notes: also called LHD101-A21-B82 (A21 half); not shown: N-terminal Strep-tag and sfGFP; GS-linker and smBiT or lgBiT
Question: B6 was tested. Which Kd [14] did it give?
Answer: Its Kd is 11 nM.
